{"source": "patent US20180105835", "about": "“TARGETED RNA KNOCKDOWN AND KNOCKOUT BY TYPE III-A Csm COMPLEXES” (VILNIUS UNIVERSITY, published 2018)", "target": "StCsm effector complex (Cas10-Csm2-Csm3-Csm4-Csm5, StCsm-40), wild type (Streptococcus thermophilus DGCC8004, UniProt A0A0A7HFE1;A0ABF7SXA0;A0A0A7HIF0;A0ABF7SXA2;A0ABF7SXA3 …)", "experiment": "EMSA; gel shift, StCsm-40; value only in figure", "details": "tags: N-terminal StrepII on Csm2; chain copies: Cas10:1 Csm2:3 Csm3:5 Csm4:1 Csm5:1 (stated); label: 5'-33P", "experimental": "FIGS. 16A-B show in vitro cleavage activity of the StCsm targeted to the GFP transcript. Schematic representation of StCsm bound to the target RNA used for in vitro binding and cleavage assays is presented above the gels. RNA was 5′-end labeled with ³³P as indicated with asterisk. (FIG. 16A) Gel shift assay of RNA binding by StCsm-40. The binding reactions contained the ³³P-labeled GFP RNA (0.5 nM) and StCsm-40 at concentrations indicated by each lane. Samples were analyzed by PAGE under non-denaturating conditions. (FIG. 16B) StCsm-40 cleavage assay. Cleavage reactions were performed at 25° C. for indicated time intervals in the Reaction buffer supplemented with 10 mM Mg-acetate, 8 nM GFP RNA substrate and 160 nM StCsm-40. Samples were analyzed by denaturing PAGE, followed by phosphorimaging. […]\nBinding assays were performed by incubating different amounts of Csm complexes with 0.5 nM of ³²P-5′-labeled NA in the Binding buffer (40 mM Tris, 20 mM acetic acid (pH 8.4 at 25° C.), 1 mM EDTA, 0.1 mg/ml BSA, 10% (v/v) glycerol). […] The Kd for NA binding by Csm-72 and Csm-40 was evaluated assuming the complex concentration at which half of the substrate is bound as a rough estimate of Kd value. For binding competition assay 0.5 nM ³²P-labelled S3/1 RNA was mixed with 0.5-5000 nM of unlabelled competitor NA and 0.3 nM StCsm-40, and analyzed by EMSA."}
{"binder": "jGFP crRNA 40 nt ; jGFP target RNA (coding-strand DNA sequence printed) (ssRNA ; ssRNA) RNA 1: ACGGAAACAUAACCUUCGGGCAUGGCACUCUUGAAAAAGU RNA 2: CAUGACUUUUUCAAGAGUGCCAUGCCCGAAGGUUAU", "values": [{"measurement": "binding result", "result": "binds"}]}
